Source: patent publication US20120122783A1 (INDIANA UNIVERSITY RESEARCH AND TECHOLOGY, published 2012)
Where two headings read alike, the source gives them in different places. Square brackets hold non-standard residues; d marks the D form. Ends that are not written are not given here. PhLac = O=C(O)[C@@H](O)Cc1ccccc1

What was measured:
human glucagon receptor [1] = molecular target: T1, human glucagon receptor (human, UniProt P47871 26-477); assay: cell-based or functional assay
human GLP-1 receptor = human GLP-1 receptor (human, UniProt P43220 24-463); assay: cell-based or functional assay
human glucagon receptor [2] = molecular target: T1, human glucagon receptor; assay: SPA competition vs 125I-glucagon, receptor membranes
human glucagon receptor [3] = molecular target: T1, human glucagon receptor; assay: cell-based or functional assay; remark: listed apart in the source
human glucagon receptor [4] = molecular target: T1, human glucagon receptor; assay: cell-based or functional assay; remark: listed apart in the source
human glucagon receptor [5] = molecular target: T1, human glucagon receptor; assay: cell-based or functional assay; remark: listed apart in the source
human glucagon receptor [6] = molecular target: T1, human glucagon receptor; assay: cell-based or functional assay; remark: listed apart in the source
human glucagon receptor [7] = molecular target: T1, human glucagon receptor; assay: cell-based or functional assay; remark: listed apart in the source
human glucagon receptor [8] = molecular target: T1, human glucagon receptor; assay: cell-based or functional assay; remark: listed apart in the source
human glucagon receptor [9] = molecular target: T1, human glucagon receptor; assay: cell-based or functional assay; remark: listed apart in the source

T1 sequence (P47871 26-477): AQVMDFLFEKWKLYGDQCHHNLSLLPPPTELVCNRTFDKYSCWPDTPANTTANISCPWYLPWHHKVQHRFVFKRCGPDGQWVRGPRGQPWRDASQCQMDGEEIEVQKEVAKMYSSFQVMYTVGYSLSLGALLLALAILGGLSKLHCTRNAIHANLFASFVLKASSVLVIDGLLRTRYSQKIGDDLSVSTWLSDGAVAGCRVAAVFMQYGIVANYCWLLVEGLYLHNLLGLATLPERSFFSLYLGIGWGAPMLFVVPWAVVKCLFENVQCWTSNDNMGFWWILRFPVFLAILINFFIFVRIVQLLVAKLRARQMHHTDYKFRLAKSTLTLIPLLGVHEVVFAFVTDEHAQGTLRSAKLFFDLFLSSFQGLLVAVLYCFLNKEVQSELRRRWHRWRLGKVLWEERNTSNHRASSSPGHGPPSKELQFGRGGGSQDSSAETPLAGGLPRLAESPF

Oxyntomodulin KRNR (peptide)
cAMP Induction EC50 (human glucagon receptor [1]): 2.77 nM
cAMP Induction EC50 (human GLP-1 receptor): 3.21 nM

[desHis^1, desPhe^6] Glucagon-NH2 (peptide)
cAMP Induction EC50 (human glucagon receptor [1]): 1180 nM
IC50 (human glucagon receptor [2]): 130 nM

FTSEYSKYLDSRRAQDFVQWLMNT-NH2 [[Glu^9]Glucagon(aa6-29)-NH2]
cAMP Inhibition IC50 (human glucagon receptor [3]): 97 nM
cAMP (I/A)50, inhibition index (human glucagon receptor [4]): 486 ratio
cAMP IC50 (human glucagon receptor [5]): 97.2 nM

B1: [PLA6, D9, D28]Glucagon(aa6-29)-NH2 (peptide)
peptide: FTSDYSKYLDSRRAQDFVQWLMDT
modifications: N-terminal residue is phenyl lactic acid (PLA) in place of Phe 6; C-terminal amide
IC50 (nM) (cAMP, inhibit Glucagon) 0.1 nM or 0.2 nM (human glucagon receptor [6]): 1.32 nM
Glucagon antagonism IC50(nM, inhibit 0.5 nM G) (human glucagon receptor [7]): 9.03 nM

[PhLac]TSEYSKYLDSRRAQDFVQWLMNT-NH2 [[PLA6, E9]Glucagon(aa6-29)-NH2]
IC50 (nM) (cAMP, inhibit 0.8 mM Glucagon) (human glucagon receptor [8]): 64.8 nM
Glucagon antagonism IC50(nM, inhibit 0.5 nM G) (human glucagon receptor [7]): 23.8 nM

B2: [PLA^4, E^9]Glucagon(aa4-29)-NH2 (peptide)
peptide: [PhLac]TFTSEYSKYLDSRRAQDFVQWLMNT-NH2
modifications: N-terminus assumed
SMILES: CSCC[C@H](NC(=O)[C@H](CC(C)C)NC(=O)[C@H](Cc1c[nH]c2ccccc12)NC(=O)[C@H](CCC(N)=O)NC(=O)[C@@H](NC(=O)[C@H](Cc1ccccc1)NC(=O)[C@H](CC(=O)O)NC(=O)[C@H](CCC(N)=O)NC(=O)[C@H](C)NC(=O)[C@H](CCCNC(=N)N)NC(=O)[C@H](CCCNC(=N)N)NC(=O)[C@H](CO)NC(=O)[C@H](CC(=O)O)NC(=O)[C@H](CC(C)C)NC(=O)[C@H](Cc1ccc(O)cc1)NC(=O)[C@H](CCCCN)NC(=O)[C@H](CO)NC(=O)[C@H](Cc1ccc(O)cc1)NC(=O)[C@H](CCC(=O)O)NC(=O)[C@H](CO)NC(=O)[C@@H](NC(=O)[C@H](Cc1ccccc1)NC(=O)[C@@H](NC(=O)[C@@H](O)Cc1ccccc1)[C@@H](C)O)[C@@H](C)O)C(C)C)C(=O)N[C@@H](CC(N)=O)C(=O)N[C@H](C(N)=O)[C@@H](C)O
IC50 (nM) (cAMP, inhibit 0.8 mM Glucagon) (human glucagon receptor [8]): 84.4 nM

HSQGTFTSDYSRYLDSRRAQDFVQWLMNK [Glucagon R12 K29]
cAMP Induction EC50 (human glucagon receptor [9]): 0.81 nM
cAMP Induction EC50 (human GLP-1 receptor): 0.41 nM

GTFTSEYSKYLDSRRAQDFVQWLMNT-NH2 [[Glu^9]Glucagon(aa4-29)-NH2]
cAMP Inhibition IC50 (human glucagon receptor [3]): 128 nM
cAMP (I/A)50, inhibition index (human glucagon receptor [4]): 1380 ratio
